According to the supplement of paper PMC10065799, “High-throughput profiling of sequence recognition by tyrosine kinases and SH2 domains using bacterial peptide display” (eLife, 2023):

These sequences were tested on c-Src (assay: phosphorylation enrichment, bacterial display (enrichment ratio); higher = better substrate or ligand; peptides without Tyr show the background).
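Further: 11-residue human phosphosite peptides and single-mutation variants displayed on the E. coli surface, counted by deep sequencing, each peptide's frequency after selection divided by its frequency in the unselected input library; frequency after pTyr selection over input frequency; kinase dosed for 20-30% of maximal phosphorylation in three min.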

Row | Sequence | phosphorylation enrichment
1 | QKFMAYLSQGG [HLCS_Y236] | 0.542
2 | LSIDRYHAIVY [NPSR1_Y147] | 0.89
3 | TEAEPYFRSLR [NPHS1_Y1138_YF] | 0.477
4 | GCRSKHVGLWG [KCNQ1_Y184_Y184H] | 0.359
5 | PINLYYLMDLS [ITGB2_Y131_D128N] | 4.42
6 | HIAKVYRRDNP [HARS1_Y156] | 1.02
7 | FRSSLYLLMET [MYO5C_Y633] | 0.521
8 | IEDPYYGNDSD [ACP1_Y133] | 1.6
9 | ISGGGYRACPA [FGB_Y71_R74C] | 0.361
10 | IRRSSYEDSSL [HNF4A_Y144_T139I] | 0.591
11 | FADIAYNFRRG [PAH_Y166_H170R_YF] | 0.45
12 | RLLRGYNQSAY [HLA-C_Y137_D138N] | 0.267
13 | ASTDFYKRGDF [PDHA1_Y243_YF] | 0.52
14 | RGFRQYAFDGK [HLA-A_Y140_D140Y_YF] | 0.653
15 | EEEYEYMNRRR [ERBB3_Y1199_D1194E] | 0.36
16 | DLDFTYIFPNI [PTEN_Y27_L25F_YF] | 2.15
17 | RPGGRYPVARR [SHANK3_Y1569_S1566G] | 0.664

Row | Sequence | phosphorylation enrichment
18 | LKVDVYRRSHK [FUT3_Y222_G223R] | 0.753
19 | QDRDLYPCPGT [RLF_Y671] | 0.613
20 | KLQKKYGPIYS [CYP17A1_Y60] | 1.17
21 | TQPSPYAVYRF [RPGRIP1_Y823] | 10.1
22 | TDRNLYSKNLV [CFAP58_Y501_S496T] | 0.627
23 | EVTLTYATGIK [NFKB1_Y485_T489I] | 0.508
24 | QYRFIYMAVQH [PTPN11_Y515] | 1.93
25 | ILKPDYQPLAI [HYDIN_Y1072] | 0.376
26 | LVMFTYAIFGM [SCN1A_Y1684_I1683T] | 2.9
27 | KKFPDYIQSAM [SGMS2_Y59_I62S_YF] | 0.521
28 | KKGIVYVFNGR [ITGAV_Y404_I405V] | 0.395
29 | SETDDYAEIIV [PTK2_Y397_D402V] | 0.61
30 | EKIANYKEGTF [CLRN1_Y171_YF] | 0.5
31 | IIEDPYYGNDS [ACP1_Y132] | 2.73
32 | PEVCDYGLGGG [GSTO1_Y239_A236V] | 0.611
33 | LLINKYGLSAH [SCP2_Y151] | 0.428

These sequences were tested against MERTK (UniProt Q12866) in the same assay as above.
Sequence of MERTK (Q12866 whole entry, looked up): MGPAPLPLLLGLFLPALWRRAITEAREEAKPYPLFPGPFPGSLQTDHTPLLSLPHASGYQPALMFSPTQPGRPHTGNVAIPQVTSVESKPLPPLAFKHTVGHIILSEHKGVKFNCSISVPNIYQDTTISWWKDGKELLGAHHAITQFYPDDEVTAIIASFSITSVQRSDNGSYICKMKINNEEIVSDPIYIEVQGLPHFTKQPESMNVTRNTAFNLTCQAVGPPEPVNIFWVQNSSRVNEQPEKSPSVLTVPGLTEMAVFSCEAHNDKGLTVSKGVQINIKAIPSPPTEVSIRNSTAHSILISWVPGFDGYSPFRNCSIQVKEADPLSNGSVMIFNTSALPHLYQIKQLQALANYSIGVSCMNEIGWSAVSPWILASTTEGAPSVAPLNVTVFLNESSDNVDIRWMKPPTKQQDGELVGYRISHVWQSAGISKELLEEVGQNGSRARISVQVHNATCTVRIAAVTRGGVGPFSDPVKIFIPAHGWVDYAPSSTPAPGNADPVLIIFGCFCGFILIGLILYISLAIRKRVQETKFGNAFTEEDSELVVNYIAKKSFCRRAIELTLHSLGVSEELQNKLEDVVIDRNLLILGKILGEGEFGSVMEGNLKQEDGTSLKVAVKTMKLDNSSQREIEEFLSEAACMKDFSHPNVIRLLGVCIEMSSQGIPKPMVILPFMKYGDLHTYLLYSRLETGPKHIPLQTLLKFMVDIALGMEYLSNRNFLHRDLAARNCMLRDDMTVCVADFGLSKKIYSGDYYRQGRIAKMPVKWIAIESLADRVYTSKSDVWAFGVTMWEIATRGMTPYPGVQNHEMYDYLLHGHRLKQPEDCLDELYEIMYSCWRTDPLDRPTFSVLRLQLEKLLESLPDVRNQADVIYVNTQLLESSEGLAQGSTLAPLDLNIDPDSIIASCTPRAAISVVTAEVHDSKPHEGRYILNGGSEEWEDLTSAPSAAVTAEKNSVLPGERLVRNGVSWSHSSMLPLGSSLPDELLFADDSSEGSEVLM

Row | Sequence | phosphorylation enrichment
34 | QKFMAYLSQGG [HLCS_Y236] | 0.517
35 | LSIDRYHAIVY [NPSR1_Y147] | 0.7
36 | TEAEPYFRSLR [NPHS1_Y1138_YF] | 0.447
37 | GCRSKHVGLWG [KCNQ1_Y184_Y184H] | 0.397
38 | PINLYYLMDLS [ITGB2_Y131_D128N] | 11.6
39 | HIAKVYRRDNP [HARS1_Y156] | 0.734
40 | FRSSLYLLMET [MYO5C_Y633] | 1.46
41 | IEDPYYGNDSD [ACP1_Y133] | 0.45
42 | ISGGGYRACPA [FGB_Y71_R74C] | 0.409
43 | IRRSSYEDSSL [HNF4A_Y144_T139I] | 0.485
44 | FADIAYNFRRG [PAH_Y166_H170R_YF] | 0.396
45 | RLLRGYNQSAY [HLA-C_Y137_D138N] | 0.275
46 | ASTDFYKRGDF [PDHA1_Y243_YF] | 0.345
47 | RGFRQYAFDGK [HLA-A_Y140_D140Y_YF] | 0.584
48 | EEEYEYMNRRR [ERBB3_Y1199_D1194E] | 0.356
49 | DLDFTYIFPNI [PTEN_Y27_L25F_YF] | 1
50 | RPGGRYPVARR [SHANK3_Y1569_S1566G] | 0.775

Row | Sequence | phosphorylation enrichment
51 | LKVDVYRRSHK [FUT3_Y222_G223R] | 0.546
52 | QDRDLYPCPGT [RLF_Y671] | 0.751
53 | KLQKKYGPIYS [CYP17A1_Y60] | 0.422
54 | TQPSPYAVYRF [RPGRIP1_Y823] | 8.69
55 | TDRNLYSKNLV [CFAP58_Y501_S496T] | 0.959
56 | EVTLTYATGIK [NFKB1_Y485_T489I] | 0.404
57 | QYRFIYMAVQH [PTPN11_Y515] | 0.729
58 | ILKPDYQPLAI [HYDIN_Y1072] | 0.425
59 | LVMFTYAIFGM [SCN1A_Y1684_I1683T] | 0.937
60 | KKFPDYIQSAM [SGMS2_Y59_I62S_YF] | 0.364
61 | KKGIVYVFNGR [ITGAV_Y404_I405V] | 0.48
62 | SETDDYAEIIV [PTK2_Y397_D402V] | 0.524
63 | EKIANYKEGTF [CLRN1_Y171_YF] | 0.498
64 | IIEDPYYGNDS [ACP1_Y132] | 0.522
65 | PEVCDYGLGGG [GSTO1_Y239_A236V] | 0.837
66 | LLINKYGLSAH [SCP2_Y151] | 0.372

Each sequence was assayed on Fer (mouse) in the same assay as above.

Row | Sequence | phosphorylation enrichment
67 | QKFMAYLSQGG [HLCS_Y236] | 0.487
68 | LSIDRYHAIVY [NPSR1_Y147] | 0.544
69 | TEAEPYFRSLR [NPHS1_Y1138_YF] | 0.494
70 | GCRSKHVGLWG [KCNQ1_Y184_Y184H] | 0.325
71 | PINLYYLMDLS [ITGB2_Y131_D128N] | 5.63
72 | HIAKVYRRDNP [HARS1_Y156] | 0.507
73 | FRSSLYLLMET [MYO5C_Y633] | 0.687
74 | IEDPYYGNDSD [ACP1_Y133] | 0.548
75 | ISGGGYRACPA [FGB_Y71_R74C] | 0.495
76 | IRRSSYEDSSL [HNF4A_Y144_T139I] | 0.526
77 | FADIAYNFRRG [PAH_Y166_H170R_YF] | 0.39
78 | RLLRGYNQSAY [HLA-C_Y137_D138N] | 0.321
79 | ASTDFYKRGDF [PDHA1_Y243_YF] | 0.475
80 | RGFRQYAFDGK [HLA-A_Y140_D140Y_YF] | 0.425
81 | EEEYEYMNRRR [ERBB3_Y1199_D1194E] | 0.342
82 | DLDFTYIFPNI [PTEN_Y27_L25F_YF] | 0.627
83 | RPGGRYPVARR [SHANK3_Y1569_S1566G] | 0.667

Row | Sequence | phosphorylation enrichment
84 | LKVDVYRRSHK [FUT3_Y222_G223R] | 0.485
85 | QDRDLYPCPGT [RLF_Y671] | 0.687
86 | KLQKKYGPIYS [CYP17A1_Y60] | 0.39
87 | TQPSPYAVYRF [RPGRIP1_Y823] | 9
88 | TDRNLYSKNLV [CFAP58_Y501_S496T] | 1.35
89 | EVTLTYATGIK [NFKB1_Y485_T489I] | 0.473
90 | QYRFIYMAVQH [PTPN11_Y515] | 1.29
91 | ILKPDYQPLAI [HYDIN_Y1072] | 0.379
92 | LVMFTYAIFGM [SCN1A_Y1684_I1683T] | 1.08
93 | KKFPDYIQSAM [SGMS2_Y59_I62S_YF] | 0.332
94 | KKGIVYVFNGR [ITGAV_Y404_I405V] | 0.441
95 | SETDDYAEIIV [PTK2_Y397_D402V] | 0.82
96 | EKIANYKEGTF [CLRN1_Y171_YF] | 0.408
97 | IIEDPYYGNDS [ACP1_Y132] | 0.632
98 | PEVCDYGLGGG [GSTO1_Y239_A236V] | 0.807
99 | LLINKYGLSAH [SCP2_Y151] | 0.619

The sequences below were run against Hck (UniProt P08631) in the same assay as above.
Sequence of Hck (P08631 whole entry, looked up): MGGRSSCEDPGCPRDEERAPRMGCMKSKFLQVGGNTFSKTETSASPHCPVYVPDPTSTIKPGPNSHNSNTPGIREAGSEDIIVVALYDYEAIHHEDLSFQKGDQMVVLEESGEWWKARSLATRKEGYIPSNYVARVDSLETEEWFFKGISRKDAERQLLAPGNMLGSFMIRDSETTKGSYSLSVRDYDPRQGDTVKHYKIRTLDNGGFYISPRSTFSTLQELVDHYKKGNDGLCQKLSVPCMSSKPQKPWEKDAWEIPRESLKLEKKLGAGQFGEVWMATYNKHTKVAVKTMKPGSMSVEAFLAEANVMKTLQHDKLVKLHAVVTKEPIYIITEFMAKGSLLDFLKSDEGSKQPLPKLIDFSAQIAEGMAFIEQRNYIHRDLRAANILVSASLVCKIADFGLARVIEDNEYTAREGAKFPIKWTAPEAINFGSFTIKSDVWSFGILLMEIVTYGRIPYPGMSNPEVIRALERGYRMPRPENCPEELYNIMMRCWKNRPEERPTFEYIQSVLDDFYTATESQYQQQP

Row | Sequence | phosphorylation enrichment
100 | QKFMAYLSQGG [HLCS_Y236] | 0.738
101 | LSIDRYHAIVY [NPSR1_Y147] | 0.533
102 | TEAEPYFRSLR [NPHS1_Y1138_YF] | 0.511
103 | GCRSKHVGLWG [KCNQ1_Y184_Y184H] | 0.328
104 | PINLYYLMDLS [ITGB2_Y131_D128N] | 4.27
105 | HIAKVYRRDNP [HARS1_Y156] | 0.592
106 | FRSSLYLLMET [MYO5C_Y633] | 0.576
107 | IEDPYYGNDSD [ACP1_Y133] | 0.759
108 | ISGGGYRACPA [FGB_Y71_R74C] | 0.432
109 | IRRSSYEDSSL [HNF4A_Y144_T139I] | 0.53
110 | FADIAYNFRRG [PAH_Y166_H170R_YF] | 0.429
111 | RLLRGYNQSAY [HLA-C_Y137_D138N] | 0.507
112 | ASTDFYKRGDF [PDHA1_Y243_YF] | 0.39
113 | RGFRQYAFDGK [HLA-A_Y140_D140Y_YF] | 0.711
114 | EEEYEYMNRRR [ERBB3_Y1199_D1194E] | 0.546
115 | DLDFTYIFPNI [PTEN_Y27_L25F_YF] | 1.16
116 | RPGGRYPVARR [SHANK3_Y1569_S1566G] | 0.626

Row | Sequence | phosphorylation enrichment
117 | LKVDVYRRSHK [FUT3_Y222_G223R] | 0.577
118 | QDRDLYPCPGT [RLF_Y671] | 0.429
119 | KLQKKYGPIYS [CYP17A1_Y60] | 2.26
120 | TQPSPYAVYRF [RPGRIP1_Y823] | 7.95
121 | TDRNLYSKNLV [CFAP58_Y501_S496T] | 0.654
122 | EVTLTYATGIK [NFKB1_Y485_T489I] | 0.555
123 | QYRFIYMAVQH [PTPN11_Y515] | 2.21
124 | ILKPDYQPLAI [HYDIN_Y1072] | 0.484
125 | LVMFTYAIFGM [SCN1A_Y1684_I1683T] | 1.48
126 | KKFPDYIQSAM [SGMS2_Y59_I62S_YF] | 0.482
127 | KKGIVYVFNGR [ITGAV_Y404_I405V] | 0.486
128 | SETDDYAEIIV [PTK2_Y397_D402V] | 0.655
129 | EKIANYKEGTF [CLRN1_Y171_YF] | 0.4
130 | IIEDPYYGNDS [ACP1_Y132] | 0.918
131 | PEVCDYGLGGG [GSTO1_Y239_A236V] | 0.765
132 | LLINKYGLSAH [SCP2_Y151] | 0.428
